Source: patent publication US20240270821A1, “GIP/GLP1/GCG TRI-RECEPTOR AGONISTS AND USES THEREOF” (priority 2023, published 2024)

Experiments:
Assay in all cases: cell-based or functional assay
[1] = molecular target: human glucagon receptor (human) (UniProt P47871)
hGLP-1R = hGLP-1R (Homo sapiens, UniProt P43220)
[2] = molecular target: T1, human GIP receptor (human) (UniProt P48546)
T1 sequence (looked up): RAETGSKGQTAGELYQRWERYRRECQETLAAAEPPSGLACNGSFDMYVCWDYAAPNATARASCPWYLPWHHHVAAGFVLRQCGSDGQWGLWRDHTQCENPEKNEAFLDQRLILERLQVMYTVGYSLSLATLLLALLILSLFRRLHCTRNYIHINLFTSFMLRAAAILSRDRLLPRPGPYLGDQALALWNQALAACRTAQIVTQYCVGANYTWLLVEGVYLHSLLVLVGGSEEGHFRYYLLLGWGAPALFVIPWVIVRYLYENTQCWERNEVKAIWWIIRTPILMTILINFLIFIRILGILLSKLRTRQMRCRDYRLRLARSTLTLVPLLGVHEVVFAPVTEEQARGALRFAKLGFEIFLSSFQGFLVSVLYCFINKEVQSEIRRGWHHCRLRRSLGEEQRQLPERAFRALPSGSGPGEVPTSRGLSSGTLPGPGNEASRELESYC

Sequence of hGLP-1R (P43220 24-463): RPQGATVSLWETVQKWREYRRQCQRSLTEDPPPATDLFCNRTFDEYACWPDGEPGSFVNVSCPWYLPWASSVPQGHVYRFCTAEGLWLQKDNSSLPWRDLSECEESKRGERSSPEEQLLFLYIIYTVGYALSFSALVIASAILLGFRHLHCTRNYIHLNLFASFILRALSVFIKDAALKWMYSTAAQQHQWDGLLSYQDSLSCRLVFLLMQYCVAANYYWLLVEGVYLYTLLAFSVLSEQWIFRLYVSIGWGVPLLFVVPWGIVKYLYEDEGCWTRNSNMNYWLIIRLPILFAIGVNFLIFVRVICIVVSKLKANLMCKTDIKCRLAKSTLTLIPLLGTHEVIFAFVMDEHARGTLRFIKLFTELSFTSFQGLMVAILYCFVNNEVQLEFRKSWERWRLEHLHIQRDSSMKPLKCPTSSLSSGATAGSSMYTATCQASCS
Sequence of human glucagon receptor (human) (P47871 26-477): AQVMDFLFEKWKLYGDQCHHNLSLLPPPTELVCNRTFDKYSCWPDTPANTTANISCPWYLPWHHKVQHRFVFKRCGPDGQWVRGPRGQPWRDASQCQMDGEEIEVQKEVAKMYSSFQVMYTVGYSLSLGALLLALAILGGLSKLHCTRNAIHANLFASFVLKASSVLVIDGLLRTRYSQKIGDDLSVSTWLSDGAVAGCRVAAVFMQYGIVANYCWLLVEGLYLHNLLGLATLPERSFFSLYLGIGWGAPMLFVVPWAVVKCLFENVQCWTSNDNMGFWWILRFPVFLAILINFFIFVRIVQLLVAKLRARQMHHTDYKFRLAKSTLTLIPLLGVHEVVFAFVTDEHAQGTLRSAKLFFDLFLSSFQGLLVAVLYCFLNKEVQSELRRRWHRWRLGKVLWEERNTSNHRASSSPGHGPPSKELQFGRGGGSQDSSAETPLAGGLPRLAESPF

Row | Binder | Relative cAMP EC50 [1] | cAMP Rel EC50, nM (in the presence of 1% HSA) [1] | Relative cAMP EC50 (hGLP-1R) | cAMP Rel EC50, nM (in the presence of 1% HSA) (hGLP-1R) | Relative cAMP EC50 [2] | cAMP Rel EC50, nM (in the presence of 1% HSA) [2] | cAMP Rel EC50 (in the presence of 1% HSA) [1] | cAMP Rel EC50 (in the presence of 1% HSA) (hGLP-1R) | cAMP Rel EC50 (in the presence of 1% HSA) [2]
1 | YXQGTFTSDFSXXLDKKAQXAFIEYLLEGGPSSGEPPPSEG (synthetic construct; SITE 2: note = 2-Aminoisobutyric Acid; SITE 12: note = L-ornithine; SITE 13: note = alpha-methyl-leucine; SITE 17: note = Lysine is chemically modified through conjugation of the epsilon-amino group of the Lysine side chain with (2-[2-(2-Amino-ethoxy)-ethoxy]-acetyl)-(gamma-Glu)) [Example 59] | 6.57 nM | 2160 nM | 4.8 nM | 1370 nM | 0.54 nM | 166 nM |  |  | 
2 | YXQGTXTSDXSIXLDXKAQXEFIEXLLEGGPSSGAPPPSGE (non-natural residues, C-terminal amide, acylated Lys with fatty diacid; synthetic construct; SITE 2: note = 2-Aminoisobutyric Acid; SITE 6: note = alpha-methyl-2-fluoro-L-phenylalanine; SITE 10: note = 3-(4-Pyridyl)-L-alanine; SITE 13: note = alpha-methyl-leucine; SITE 16: note = L-ornithine; SITE 17: note = Lysine is chemically modified through conjugation of the epsil) [Example 613] | 20.4 nM |  | 0.698 nM |  | 0.00925 nM |  | 1410 nM | 81.6 nM | 0.791 nM
3 | YXQGTXTSDXSIXLDXKAQXEFIEXLLEGGPSSGAPPPSGE (Non-natural residues; K acylated AEEA-γGlu-C18 diacid; C-terminal amide; synthetic construct; SITE 2: note = 2-Aminoisobutyric Acid; SITE 6: note = alpha-methyl-2-fluoro-L-phenylalanine; SITE 10: note = 3-(4-Pyridyl)-L-alanine; SITE 13: note = alpha-methyl-leucine; SITE 16: note = L-ornithine; SITE 17: note = Lysine is chemically modified through conjugation of the epsil) [Example 615] | 3.93 nM |  | 0.575 nM |  | 0.00825 nM |  | 697 nM | 82.9 nM | 0.95 nM
4 | YXQGTXTSDXSIXLDXKAQXEFIEXLIEGGPSSGAPPPSGE (Aib, alpha-methyl residues, 4Pal, Orn, D-Glu, lipidated Lys, amide; synthetic construct; SITE 2: note = 2-Aminoisobutyric Acid; SITE 6: note = alpha-methyl-2-fluoro-L-phenylalanine; SITE 10: note = 3-(4-Pyridyl)-L-alanine; SITE 13: note = alpha-methyl-leucine; SITE 16: note = L-ornithine; SITE 17: note = Lysine is chemically modified through conjugation of the epsil) [Example 616] | 6.58 nM |  | 0.29 nM |  | 0.00727 nM |  | 734 nM | 28.9 nM | 0.467 nM
5 | YXQGTXTSDXSIXLDXKAQXEFIEXLIEGGPSSGAPPPSGE (non-natural residues; acylated Lys; C-terminal amide; synthetic construct; SITE 2: note = 2-Aminoisobutyric Acid; SITE 6: note = alpha-methyl-2-fluoro-L-phenylalanine; SITE 10: note = 3-(4-Pyridyl)-L-alanine; SITE 13: note = alpha-methyl-leucine; SITE 16: note = L-ornithine; SITE 17: note = Lysine is chemically modified through conjugation of the epsil) [Example 614] | 6.36 nM |  | 0.251 nM |  | 0.0065 nM |  | 724 nM | 33.2 nM | 0.597 nM
6 | YXQGTXTSDXSILLDKKAQXAFIEYLEEGGPSSGAPPPSGSEE (acylated Lys (γGlu)2-C18 diacid; non-natural residues; C-terminal amide; synthetic construct; SITE 2: note = 2-Aminoisobutyric Acid; SITE 6: note = alpha-methyl-2-fluoro-L-phenylalanine; SITE 10: note = 3-(4-Pyridyl)-L-alanine; SITE 17: note = Lysine is chemically modified through conjugation of the epsilon-amino group of the Lysine side chain with (gamma-Glu)2-CO-(CH2)1) [Example 610] | 5.75 nM |  | 1.66 nM |  | 0.133 nM |  | 536 nM | 130 nM | 7.02 nM
7 | YXQGTXTSDXSIXLDKKAQXAFIEYLEEGGPSSGAPPPSGEGE (Lys acylated with (γGlu)2-C18 diacid; non-natural residues; C-amide; synthetic construct; SITE 2: note = 2-Aminoisobutyric Acid; SITE 6: note = alpha-methyl-2-fluoro-L-phenylalanine; SITE 10: note = 3-(4-Pyridyl)-L-alanine; SITE 13: note = alpha-methyl-leucine; SITE 17: note = Lysine is chemically modified through conjugation of the epsilon-amino group of the Lysine) [Example 623] | 7.94 nM |  | 0.907 nM |  | 0.0224 nM |  | 832 nM | 62.2 nM | 1.48 nM
8 | YXQGTXTSDXSILLDKKAQXAFIEYLEEGGPSSGAPPPSGGGE (non-natural residues; lipidated Lys; C-terminal amide; synthetic construct; SITE 2: note = 2-Aminoisobutyric Acid; SITE 6: note = alpha-methyl-2-fluoro-L-phenylalanine; SITE 10: note = 3-(4-Pyridyl)-L-alanine; SITE 17: note = Lysine is chemically modified through conjugation of the epsilon-amino group of the Lysine side chain with (gamma-Glu)2-CO-(CH2)1) [Example 619] | 6.34 nM |  | 0.992 nM |  | 0.0685 nM |  | 819 nM | 94 nM | 6.78 nM
9 | YXQGTXTSDXSILLDKKAQXAFIEYLEEGGPSSGAPPPSGSGE (non-natural residues; lysine acylated with (γ-Glu)2-C18 diacid; C-terminal amide; synthetic construct; SITE 2: note = 2-Aminoisobutyric Acid; SITE 6: note = alpha-methyl-2-fluoro-L-phenylalanine; SITE 10: note = 3-(4-Pyridyl)-L-alanine; SITE 17: note = Lysine is chemically modified through conjugation of the epsilon-amino group of the Lysine side chain with (gamma-Glu)2-CO-(CH2)1) [Example 618] | 5.57 nM |  | 1.53 nM |  | 0.0418 nM |  | 691 nM | 88.9 nM | 4.63 nM
10 | YXQGTXTSDXSIXLDKKAQXAFIEYLSEGGPSSGEPPPSGSEE (Lys acylated (γ-Glu)2-C18 diacid; non-natural residues; C-terminal amide; synthetic construct; SITE 2: note = 2-Aminoisobutyric Acid; SITE 6: note = alpha-methyl-2-fluoro-L-phenylalanine; SITE 10: note = 3-(4-Pyridyl)-L-alanine; SITE 13: note = alpha-methyl-leucine; SITE 17: note = Lysine is chemically modified through conjugation of the epsilon-amino group of the Lysine) [Example 632] | 13.5 nM |  | 0.951 nM |  | 0.068 nM |  | 1600 nM | 88.2 nM | 5.48 nM
11 | YXQGTXTSDXSIXLDKKAQXAFIEYLEEGGPSSGEPPPSGSEE (Lys acylated (γ-Glu)2-C18 diacid; non-natural residues; C-terminal amide; synthetic construct; SITE 2: note = 2-Aminoisobutyric Acid; SITE 6: note = alpha-methyl-2-fluoro-L-phenylalanine; SITE 10: note = 3-(4-Pyridyl)-L-alanine; SITE 13: note = alpha-methyl-leucine; SITE 17: note = Lysine is chemically modified through conjugation of the epsilon-amino group of the Lysine) [Example 630] | 8.07 nM |  | 0.762 nM |  | 0.0233 nM |  | 872 nM | 74.5 nM | 2.96 nM
12 | YXQGTXTSDXSILLDKKAQXAFIEYLEEGGPSSGAPPPSGGEE (non-natural residues; acylated Lys C18 diacid; C-term amide; synthetic construct; SITE 2: note = 2-Aminoisobutyric Acid; SITE 6: note = alpha-methyl-2-fluoro-L-phenylalanine; SITE 10: note = 3-(4-Pyridyl)-L-alanine; SITE 17: note = Lysine is chemically modified through conjugation of the epsilon-amino group of the Lysine side chain with (gamma-Glu)2-CO-(CH2)1) [Example 612] | 7.13 nM |  | 1.21 nM |  | 0.087 nM |  | 640 nM | 126 nM | 7.58 nM
13 | YXQGTXTSDXSIXLDKKAQXAFIEYLEEGGPSSGEPPPSGEGE (non-natural residues; lipidated Lys; C-terminal amide; synthetic construct; SITE 2: note = 2-Aminoisobutyric Acid; SITE 6: note = alpha-methyl-2-fluoro-L-phenylalanine; SITE 10: note = 3-(4-Pyridyl)-L-alanine; SITE 13: note = alpha-methyl-leucine; SITE 17: note = Lysine is chemically modified through conjugation of the epsilon-amino group of the Lysine) [Example 625] | 8.53 nM |  | 1.16 nM |  | 0.0291 nM |  | 657 nM | 72.1 nM | 1.81 nM
